Laboratory results published in the supplement of paper PMC9112550, “Optimization of the antimicrobial peptide Bac7 by deep mutational scanning” (BMC Biology, 2022).

Tested on: Escherichia coli TOP10
Experiment: shrunken log2 fold change of peptide-encoding DNA abundance (4.5 h post-induction vs induction); higher = less antimicrobial activity (less host growth inhibition)
Conditions: time post-induction: 4.5 h; library: site-saturation at positions 5, 18, 19, 20
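Note: peptides expressed intracellularly from a pBAD plasmid library in pooled LB shake-flask culture, induced with 0.3% L-arabinose, DNA abundance read by NGS, three biological replicates, DESeq2 with apeglm shrinkage.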

Sequence	shrunken log2 fold change
RRIRKRPPRLPRPRPRPPGRPRP	2.07
RRIRFRPPRLPRPRPRPYMFPRP	-1.11
RRIRLRPPRLPRPRPRPIGHPRP	-0.212
RRIRMRPPRLPRPRPRPQENPRP	0.48
RRIRYRPPRLPRPRPRPYFVPRP	-0.858
RRIRVRPPRLPRPRPRPPQVPRP	0.377
RRIRGRPPRLPRPRPRPGDGPRP	0.895
RRIRYRPPRLPRPRPRPIQMPRP	-0.0163
RRIRQRPPRLPRPRPRPQEGPRP	0.0274
RRIRDRPPRLPRPRPRPPKKPRP	0.0806
RRIRMRPPRLPRPRPRPECRPRP	2.38
RRIRRRPPRLPRPRPRPANLPRP	0.0328
RRIRFRPPRLPRPRPRPLQAPRP	0.285
RRIRQRPPRLPRPRPRPAEQPRP	-0.000243
RRIRDRPPRLPRPRPRPYIHPRP	-0.117
RRIRERPPRLPRPRPRPCSCPRP	-0.00783
RRIRMRPPRLPRPRPRPHLRPRP	0.0326
RRIRARPPRLPRPRPRPDAHPRP	0.876
RRIRTRPPRLPRPRPRPWVHPRP	-0.0467
RRIRIRPPRLPRPRPRPYRNPRP	-0.0378
RRIRKRPPRLPRPRPRPMVSPRP	0.0111
RRIRTRPPRLPRPRPRPTIPPRP	-0.198
RRIRERPPRLPRPRPRPNFIPRP	-0.442
RRIRQRPPRLPRPRPRPCVTPRP	-0.141
RRIRMRPPRLPRPRPRPPTPPRP	1.66

Sequence	shrunken log2 fold change
RRIRCRPPRLPRPRPRPKEDPRP	0.166
RRIRCRPPRLPRPRPRPWLSPRP	-0.215
RRIRHRPPRLPRPRPRPAYRPRP	-0.00502
RRIRARPPRLPRPRPRPEVCPRP	1.25
RRIRCRPPRLPRPRPRPEAMPRP	0.536
RRIRMRPPRLPRPRPRPWRFPRP	0.0528
RRIRIRPPRLPRPRPRPYLNPRP	-0.239
RRIRCRPPRLPRPRPRPCASPRP	0.0454
RRIRYRPPRLPRPRPRPCRTPRP	-0.651
RRIRVRPPRLPRPRPRPYVTPRP	0.0974
RRIRHRPPRLPRPRPRPDNPPRP	-0.0868
RRIRARPPRLPRPRPRPICEPRP	0.512
RRIRMRPPRLPRPRPRPQFHPRP	-0.237
RRIRCRPPRLPRPRPRPKRLPRP	0.0169
RRIRHRPPRLPRPRPRPEQDPRP	0.057
RRIRMRPPRLPRPRPRPSVVPRP	0.124
RRIRCRPPRLPRPRPRPSEFPRP	-0.287
RRIRRRPPRLPRPRPRPYGPPRP	-0.64
RRIRNRPPRLPRPRPRPNDNPRP	-0.734
RRIRHRPPRLPRPRPRPVDDPRP	-0.221
RRIRLRPPRLPRPRPRPVHHPRP	-0.105
RRIRCRPPRLPRPRPRPKVCPRP	0.0885
RRIRTRPPRLPRPRPRPCTIPRP	-0.456
RRIRRRPPRLPRPRPRPVCEPRP	0.935
RRIRMRPPRLPRPRPRPADWPRP	0.905

Sequence	shrunken log2 fold change
RRIRWRPPRLPRPRPRPIPQPRP	0.254
RRIRRRPPRLPRPRPRPHNSPRP	0.0175
RRIRARPPRLPRPRPRPPTMPRP	0.407
RRIRSRPPRLPRPRPRPSKNPRP	-0.306
RRIRFRPPRLPRPRPRPDSGPRP	-0.0156
RRIRARPPRLPRPRPRPNFFPRP	0.349
RRIRRRPPRLPRPRPRPMNDPRP	0.338
RRIRERPPRLPRPRPRPHEWPRP	-0.155
RRIRMRPPRLPRPRPRPELEPRP	4.13
RRIRVRPPRLPRPRPRPWKIPRP	-0.0261
RRIRIRPPRLPRPRPRPQVGPRP	-0.094
RRIRGRPPRLPRPRPRPAQDPRP	0.836
RRIRMRPPRLPRPRPRPRAMPRP	1.42
RRIRNRPPRLPRPRPRPDDVPRP	-0.0233
RRIRFRPPRLPRPRPRPEYQPRP	-0.0212
RRIRIRPPRLPRPRPRPWYRPRP	-0.678
RRIRSRPPRLPRPRPRPKRGPRP	0.0665
RRIRSRPPRLPRPRPRPTKIPRP	0.00311
RRIRDRPPRLPRPRPRPMTDPRP	-0.109
RRIRNRPPRLPRPRPRPSVSPRP	-0.44
RRIRFRPPRLPRPRPRPAYVPRP	0.678
RRIRQRPPRLPRPRPRPNQQPRP	-0.0802
RRIRPRPPRLPRPRPRPRSYPRP	0.199
RRIRERPPRLPRPRPRPTQHPRP	0.239
RRIRQRPPRLPRPRPRPPARPRP	0.23

Sequence	shrunken log2 fold change
RRIRPRPPRLPRPRPRPRIPPRP	0.243
RRIRKRPPRLPRPRPRPEQLPRP	-0.0173
RRIRYRPPRLPRPRPRPSLRPRP	-0.9
RRIRIRPPRLPRPRPRPNICPRP	-0.147
RRIRYRPPRLPRPRPRPYARPRP	-0.0987
RRIRHRPPRLPRPRPRPILAPRP	0.00463
RRIRTRPPRLPRPRPRPEAWPRP	0.178
RRIRKRPPRLPRPRPRPVPPPRP	1.85
RRIRHRPPRLPRPRPRPMFQPRP	-0.0107
RRIRVRPPRLPRPRPRPNLFPRP	-0.355
RRIRGRPPRLPRPRPRPHVHPRP	-0.332
RRIRYRPPRLPRPRPRPHDKPRP	-0.661
RRIRWRPPRLPRPRPRPYLWPRP	-0.153
RRIRLRPPRLPRPRPRPMRSPRP	0.0143
RRIRTRPPRLPRPRPRPKVNPRP	-0.168
RRIRRRPPRLPRPRPRPTGQPRP	0.675
RRIRMRPPRLPRPRPRPIMAPRP	-0.0196
RRIRYRPPRLPRPRPRPQGYPRP	-0.516
RRIRRRPPRLPRPRPRPDRKPRP	-0.145
RRIRMRPPRLPRPRPRPGSIPRP	0.239
RRIRWRPPRLPRPRPRPGADPRP	0.839
RRIRRRPPRLPRPRPRPGRGPRP	0.805
RRIRPRPPRLPRPRPRPWRPPRP	0.12
RRIRWRPPRLPRPRPRPINDPRP	-0.222
RRIRMRPPRLPRPRPRPQAAPRP	0.87

Sequence	shrunken log2 fold change
RRIRERPPRLPRPRPRPLIEPRP	-0.287
RRIRERPPRLPRPRPRPVEEPRP	-0.127
RRIRFRPPRLPRPRPRPSSVPRP	-0.503
RRIRFRPPRLPRPRPRPVDRPRP	0.123
RRIRQRPPRLPRPRPRPLGSPRP	0.0483
RRIRRRPPRLPRPRPRPFVFPRP	0.274
RRIRERPPRLPRPRPRPSVYPRP	-0.493
RRIRIRPPRLPRPRPRPDFLPRP	-0.725
RRIRSRPPRLPRPRPRPFSPPRP	-0.195
RRIRMRPPRLPRPRPRPMQEPRP	0.0303
RRIRMRPPRLPRPRPRPYDCPRP	-0.113
RRIRSRPPRLPRPRPRPDHQPRP	-0.263
RRIRCRPPRLPRPRPRPTWCPRP	-0.0117
RRIRARPPRLPRPRPRPTPGPRP	0.826
RRIRFRPPRLPRPRPRPYCVPRP	-1.23
RRIRMRPPRLPRPRPRPEGNPRP	0.182
RRIRSRPPRLPRPRPRPIPGPRP	-0.0336
RRIRERPPRLPRPRPRPPAGPRP	0.589
RRIRPRPPRLPRPRPRPDHRPRP	-0.0495
RRIRERPPRLPRPRPRPLRVPRP	0.269
RRIRHRPPRLPRPRPRPKDTPRP	-0.15
RRIRWRPPRLPRPRPRPYPCPRP	-0.105
RRIRKRPPRLPRPRPRPFNTPRP	-0.0902
RRIRTRPPRLPRPRPRPCTSPRP	-0.137
RRIRGRPPRLPRPRPRPSVHPRP	-0.00458
